Experimental data taken from patent US9181310B2 (priority 2003, dated 2015).
“Also recorded” adds a separate entry of the source. Like-named read-outs stand apart in the source and are kept apart here. No end group written: not given here.

Key:
[1] = incubated with intercellular plant fluid of potato; cited from earlier work
[2] = incubated with intercellular plant fluid of rice; cited from earlier work
E. coli ER2566 [3] = assay type: cell-based
E. coli ER2566 [4] = assay type: cell-based; settings: for bacterial stasis induced by expression: berberine chloride 250 ug/ml, 0.25 mM IPTG, 20 hrs of induction
R. solanacearum = assay type: in vivo; settings: sweet pepper leaves, transient expression from pIPG780, 48 hrs after challenge
[5] = tested on: geranium (Pelargonium X hortorum) cv. Avenida; experiment: Stable transformation of geranium, effect on the plant; settings: stable transformation with pIPG787
[6] = tested on: R. solanacearum strain Rsp446; assay type: in vivo; settings: after 68 days
X. pelargonii = settings: in vivo
[7] = tested on: X. pelargonii strain CHSC; settings: in vivo
[8] = tested on: Nicotiana tabaccum cv. Xanthi; experiment: Stable transformation of tobacco, effect on the plant; settings: stable transformation with pIPG786
[9] = tested on: rice (Oryza sativa japonica) cv. TP309; experiment: Stable transformation of rice, effect on the plant; settings: stable transformation with pIPG787
[10] = tested on: Ca. Liberibacter asiaticus; assay type: in vivo; settings: transgenic tobacco Xanthi, same on retest three weeks later
[11] = tested on: purified LPS extracted from X. campestris pv. pelargonii, X. citri, Rhizobium leguminosarum and Ralstonia solanacearum; assay type: biochemical; settings: 5 ug purified protein, room temperature, 2 hours
[12] = tested on: X. pelargonii strain CHSC; experiment: Pathogen challenge of transgenic geranium; assay type: in vivo
Protocol: Following inoculation, plants were held at 32° C. The circled region was cut out, and contained ca. 10^5 cfu/cm^2 live X. pelargonii cells (for details, refer Example 11 below). Photo taken four weeks after inoculation.
Following inoculation, plants were held at 32° C. […] Photo taken four weeks after inoculation.
Cell counts were taken daily for nine days by removing circular sections totaling 1 square centimeter (cm^2) using a cork borer from three inoculated leaves in the area most likely to contain pathogen cells (refer FIGS. 1 and 2). These leaf sections were macerated with a mortar and pestle and 1 milliliter of buffer, diluted using a 1:10 dilution series and 10 microliter drops placed on solid growth medium for counting. […] These plants were both immune to X. pelargonii infection, and rapidly brought the artificially inoculated pathogen population to extinction.
Inoculations were performed using liquid culture grown X. pelargonii cells, sprayed on the leaves at a concentration of 10^7 colony forming units per milliliter (cfu/ml) each. X. pelargonii was also inoculated using scissors dipped in 10^9 cfu/ml of cells to clip the leaves in several places on the same plants that were sprayed. Following X. pelargonii inoculation, plants were held at 32° C. to encourage pathogen growth and symptom development. Four weeks after inoculation, photographs were taken of both nontransgenic geranium variety “Avenida” inoculated with X. pelargonii (FIG. 1) and transgenic geranium of the same variety “Avenida” expressing BombBC inoculated with X. pelargonii (FIG. 2), and circular sections totaling 1 square centimeter (cm^2) were removed using a cork borer from three inoculated leaves in the area most likely to contain pathogen cells (refer FIGS. 1 and 2). Consistently, 10^5 cfu/ml of X. pelargonii was recovered from nontransgenic geranium variety “Avenida” plants at four weeks after inoculation (FIG. 3), and symptoms progressed systemically until the entire plant was dead, usually by 12 weeks after inoculation. […] These plants were immune to X. pelargonii infection.

[13] = tested on: LPS of X. campestris pv. pelargonii, X. citri, Rhizobium leguminosarum and Ralstonia solanacearum; assay type: binding; settings: treated LPS lanes, Western blot
[14] = tested on: R. solanacearum strain Rsp673; assay type: in vivo; settings: transgenic geranium Avenida
[15] = tested on: E. coli strains ADA410 P3rpoH::lacZ reporter (LPS or outer membrane damage); experiment: P3rpoH::lacZ reporter, purified protein droplets on ADA410 cells on X-gal agar; settings: ten microliter droplets of purified protein, 24 hr
[16] = Exp. 1, cutting (T0), inoculum 5 × 10^7 cfu/ml
[17] = Exp. 2, cutting (T0), inoculum 1 × 10^8 cfu/ml

## cecropin B: linear lytic peptide rapidly degraded by plant proteases (KWKVFKKIEKMGRNIRNGIVKAGPAIAVLGEAKAL; ends and bridges not checked; UniProt P01508 27-61, looked up)
[1]
  half-life: about three
[2]
  half-life: about 25 hours

B1: BombOrf9: Phage 13 ORF 9 from Xanthomonas campestris pv. pelargonii, SEQ ID No. 13 (protein, listed as Xanthomonas campestris)
chain: MVVVAQGTVPAKVHPQLTNLTALFADAVGLFLDVSDKVADLLVRFADVEAQGAELLLDLAHLAVPASVVHPTHAGQDQTVPAASDILHGVLEGQPVALVVNQRALRAAQLNPLLALRLDVEAVADQDAEGGAVAHAHAGDQLAVEQKLQILLERFGHDALAGHRRVEPIAYLVDVRSWEAGALDADQPRDDTADGDDAHAQRFVRHVERDGFGSGVLHPSQVRQRLAVLVDDFVEGSRVALDDRANHGEVGVDRVHQ
E. coli ER2566 [3]
  activity of expression clone (growth in presence of berberine chloride): Active
  relative strength of activity in E. coli: Weak activity

B2: BombOrfL: Phage 15 ORF L from Xanthomonas campestris pv. pelargonii, SEQ ID No. 15 (protein, listed as Xanthomonas campestris)
chain: MPTVDATPGSITANSYVTVAEANSYFDGSYGRPLWTSASEDEKASLVISASRYLDQMMAWIGAPTNPEQSMWWPCKNAVIGGMTLSQVSIPVKVKIAVFELAYFMLESGAALSFADQTIDSVKVGTIRVEFTKNSTDAGLPTFVEAMLSGFGSPVLYGSNAARSIDLVRA
E. coli ER2566 [3]
  activity of expression clone (growth in presence of berberine chloride): Active

B3: BombBC: Bacteriophage Outer Membrane Breaching protein of Xanthomonas phage P15 (Xp15) ORF BC, 17.9 kD, SEQ ID NO. 17 (protein, listed as Xanthomonas campestris)
chain: MSDQTDTTQTTPAEKAPPKEIIRGRMPIAVVALARFGSQSTTTTKAAADALGTTVGKIDDIRKNRNFAYVTADFKPTEAQKADGIEWLKRHPVGADALIEELQNLPVATAEESAAFEQVRASARGQNAKTAEGEVAQAGGGNRRKKKEKPAEAGEVQNPPAADGDSLLS
E. coli ER2566 [4]
  bacterial stasis induced by expression: clearly induced
R. solanacearum
  HR symptoms elicited by R. solanacearum: abolished
E. coli ER2566 [3]
  activity of expression clone (growth in presence of berberine chloride): Active
[5]
  detrimental effect on geranium plants: not detrimental
[6]; [16]
  number of survivors/total tested: 10/15
  per cent survivors: (63%)
[6]; [17]
  number of survivors/total tested: 9/20
  per cent survivors: (45%)
[6]; Exp. 3, seeded (T1), inoculum 2 × 10^8 cfu/ml
  number of survivors/total tested: 0/21
X. pelargonii
  drop in the number of colony forming units vs. control leaves: 100 ×
  pathogenic symptoms caused by X. pelargonii: greatly reduced
[7]
  HR symptoms elicited by X. pelargonii: abolished
[8]
  detrimental effect on tobacco plants: not detrimental
[9]
  detrimental effect on rice plants: not detrimental
[10]; 4 weeks connected to dodder
  plants symptomatic for greening: neither of the two
[10]; nested PCR
  plants PCR positive for greening: neither were PCR positive
[11]
  degradation of LPS: enzymatically degrades LPS
[12]; transgenic geranium Avenida
  resistance status to X. pelargonii infection: immune
[12]; transgenic geranium Avenida leaf, four weeks after inoculation
  X. pelargonii cells in cut out leaf region: no detected X. pelargonii cells
[12]; transgenic geranium Avenida, 32° C.
  symptoms of geranium blight: no evidence of symptoms
[12]; transgenic geranium Avenida, after five days following inoculation
  living X. pelargonii cells recovered: no living X. pelargonii cells were recovered
[13]
  attachment to LPS: attached to the degraded LPS of all species tested
[14]; syringe infiltration and soil inoculation, 32° C.
  symptom development of bacterial wilt: failed to progress past the leaf area where the pathogen was directly infiltrated; also recorded: No symptom development, other than that which initially developed in, and stayed restricted to, the region of inoculation
[14]; twelve weeks after inoculation
  detected R. solanacearum cells: no detected R. solanacearum cells
[15]
  blue color around ADA410 cells (P3rpoH::lacZ activation): Blue color slowly developed and intensified

B4: BombORF35PA: Phage PhiKMV ORF 35 from Pseudomonas aeruginosa, SEQ ID No. 9 (protein, listed as Pseudomonas aeruginosa)
chain: MAFWLPLLAAGGMSALQQGLANKEERNKIKAENKARLKTDLDNLGAAARDIANLGVMAASYRKQAVASQVEAKRQGMLAGGSAEAQAGAFGVKGASVDAVALDIEREVGEALIQIDDNLDNQMWNLAEQAHSIQAQAKAGLLGQKSTTAGQRSPLVAGLMSAGSLYASQYFKFGATPKGGN
E. coli ER2566 [3]
  activity of expression clone (growth in presence of berberine chloride): Active

B5: D1: BombBC deletion, aa26-169 of BC, SEQ ID 6 (protein)
chain: MPIAVVALARFGSQSTTTTKAAADALGTTVGKIDDIRKNRNFAYVTADFKPTEAQKADGIEWLKRHPVGADALIEELQNLPVATAEESAAFEQVRASARGQNAKTAEGEVAQAGGGNRRKKKEKPAEAGEVQNPPAADGDSLLS
modifications: mutant D1 predicted amino acid sequence
E. coli ER2566 [4]
  bacterial stasis induced by expression: clearly induced
E. coli ER2566 [4]; berberine chloride (5 micrograms/ml), 20 h after induction
  activity of expression clone (growth in presence of berberine chloride): Active
